From US20230404098A1

Biological target: Bovine kappa casein purified from cow's milk (Sigma Aldrich) (bovine (cow)) (UniProt P02668)
Assay: cell-based or functional assay

UniProt P02668, sequence (P02668 22-190): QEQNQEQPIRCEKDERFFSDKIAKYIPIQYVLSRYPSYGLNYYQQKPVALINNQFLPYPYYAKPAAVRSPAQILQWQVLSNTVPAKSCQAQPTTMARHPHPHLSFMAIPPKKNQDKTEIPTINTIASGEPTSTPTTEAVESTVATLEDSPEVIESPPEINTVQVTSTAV

Average A450 (turbidity of the micellar colloid): 0.13 A450
Substance: Recombinantly-produced N-terminally 6xhistidine-tagged bovine (cow) alpha-s1-casein (lacking PTMs)
